Test results published in patent publication US20100255011A1 (University of Washington, published 2010).

T1: soluble recombinant CD46 (sCD46) (human, UniProt P15529 35-343)
T1 construct: Soluble form produced as described in Wang et al. 2007; also called soluble CD46
T1 sequence: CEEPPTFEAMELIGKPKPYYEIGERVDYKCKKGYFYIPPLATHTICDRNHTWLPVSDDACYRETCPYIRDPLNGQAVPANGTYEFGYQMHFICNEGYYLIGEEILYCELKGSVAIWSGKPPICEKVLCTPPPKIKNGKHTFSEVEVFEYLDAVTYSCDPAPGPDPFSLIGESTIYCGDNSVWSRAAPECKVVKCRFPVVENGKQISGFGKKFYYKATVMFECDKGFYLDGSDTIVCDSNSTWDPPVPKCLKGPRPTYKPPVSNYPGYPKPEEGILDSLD

T2: CD46 on the surface of human cells (HeLa, Raji, PBMC and others) (human, UniProt P15529 35-376)
T2 sequence: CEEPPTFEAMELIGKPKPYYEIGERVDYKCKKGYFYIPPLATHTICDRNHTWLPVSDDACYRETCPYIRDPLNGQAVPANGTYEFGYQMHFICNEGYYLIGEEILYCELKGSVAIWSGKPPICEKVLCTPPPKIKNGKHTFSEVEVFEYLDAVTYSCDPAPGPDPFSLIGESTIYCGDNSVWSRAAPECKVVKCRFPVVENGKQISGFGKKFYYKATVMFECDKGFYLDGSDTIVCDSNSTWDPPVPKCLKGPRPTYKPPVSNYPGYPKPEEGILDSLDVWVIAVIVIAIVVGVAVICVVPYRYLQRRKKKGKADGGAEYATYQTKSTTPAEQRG


What was measured:
[1] = biological target: soluble recombinant CD46 (sCD46) (human) (UniProt P15529); assay: SPR, Biacore T100; biotinylated knob on streptavidin chip, sCD46 injected
[2] = biological target: soluble recombinant CD46 (sCD46) (human) (UniProt P15529); assay: SPR, ratio of KDs
[3] = biological target: CD46 on the surface of human cells (HeLa, Raji, PBMC and others) (human) (UniProt P15529); assay: cell-based or functional assay
[4] = biological target: T1, soluble recombinant CD46 (sCD46); assay: SPR, Biacore T100; biotinylated knob on streptavidin chip, sCD46 injected
[5] = biological target: T2, CD46 on the surface of human cells …; assay: cell-based or functional assay
[6] = biological target: T1, soluble recombinant CD46 (sCD46); assay: SPR, ratio of KDs

Row | Molecule | Kd [1] [nM] | koff [1] [s⁻¹] | kon [1] [M⁻¹ s⁻¹] | fold higher affinity than the wild-type fiber knob protein [2] [fold] | further results
1 | Ad35 fiber knob mutant Asp207Gly + Thr226Ala | 1.41 | 0.0026 | 1.97e+06 | – | –
2 | Ad35 fiber knob mutant Ile256Leu | 11 | 0.0236 | 2.13e+06 | 1.3 | –
3 | mouse anti-human CD46 antibody, clone MEM-258 (AbD Serotec) | – | – | – | – | level of CD46 on the surface of HeLa cells (flow cytometry), decline [3]: 30%; viability of Raji cells with NHS (alone or with daclizumab), decline [3]: 30%
4 | Ad35 fiber knob mutant Thr245Ala | 7.64 | 0.0173 | 2.25e+06 | 1.9 | –
5 | Ad35 fiber knob mutant Asn217Asp + Thr245Pro + Ile256Leu | 4.82 | 0.0097 | 2.25e+06 | – | –
6 | Ad35 fiber knob mutant Asp207Gly | 1.77 | 0.0034 | 3.51e+06 | 8.3 | –
7 | Ad35 fiber knob mutant Asp207Gly + Thr245Ala + Ile256Leu | 0.92 | 0.0018 | 1.96e+06 | – | –
8 | wild-type Ad35 fiber knob protein (other, Recombinant, made in E. coli, homotrimer; Biotinylated (EZ-Link Sulfo-NHS-LC-Biotin) for SPR; also called Ad35K; wild-type Ad35K) HHHHHHGDICIKDSINTLWTGINPPPNCQIVENTNTNDGKLTLVLVKNGGLVNGYVSLVGVSDTVNQMFTQKTANIQLRLYFDSSGNLLTDESDLKIPLKNKSSTATSETVASSKAFMPSTTAYPFNTTTRDSENYIHGICYYMTSYDRSLFPLNISIMLNSRMISSNVAYAIQFEWNLNASESPESNIATLTTSPFFFSYITEDDN | – | – | – | – | Kd [4]: 14.6 nM; koff [4]: 0.0234 s⁻¹; kon [4]: 1.52e+06 M⁻¹ s⁻¹; killing of Raji cells by rituximab/NHS, increase against rituximab/NHS only [5]: ~2 fold
9 | mutant Ad35 fiber knob protein with Asp207Gly and Thr245Ala substitutions (Ad35K++) (other, Recombinant, E. coli, spontaneously forms trimers; Biotinylated for SPR; also called Asp207Gly + Thr245Ala; Ad35K++ polypeptide) HHHHHHGDICIKDSINTLWTGINPPPNCQIVENTNTNDGKLTLVLVKNGGLVNGYVSLVGVSDTVNQMFTQKTANIQLRLYFDSSGNLLTGESDLKIPLKNKSSTATSETVASSKAFMPSTTAYPFNTATRDSENYIHGICYYMTSYDRSLFPLNISIMLNSRMISSNVAYAIQFEWNLNASESPESNIATLTTSPFFFSYITEDDN | – | – | – | – | Kd [4]: 0.63 nM; koff [4]: 0.0017 s⁻¹; kon [4]: 2.48e+06 M⁻¹ s⁻¹; decrease of mean CD46 fluorescence intensity on PBMCs [5]: 1.97 fold; decrease of mean CD46 fluorescence intensity on Raji cells [5]: 7.54 fold; fold decrease in GFP expression after Ad35-GFP infection of HeLa cells pre-incubated 72 hours earlier, against Ad35K-279 [5]: 1000 fold; killing of Raji cells by rituximab/NHS, increase against rituximab/NHS only [5]: ~10 fold; fold higher affinity than the wild-type Ad35 [6]: 23.2 fold
